Reference: the supplement of paper PMC10567573

B1: USP39 (parent)
chain: TLSEAYIQIWKRRDNDETNQQGA

Variants of: B1
Experiment: protein stability index of a GFP-peptide fusion (GPS, HEK-293T) (PSI 1-6); higher = more stable
Conditions: c terminus: native
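Also: lentivirally expressed fusions sorted by FACS into six bins by GFP to DsRed ratio, PSI derived from sequencing read proportions per bin multiplied by bin number.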

| Variant | protein stability index |
| --- | --- |
| TLSEAYDQIWKRRDNDETNQQGA [I7D] | 3.29 |
| TLSEAYTQIWKRRDNDETNQQGA [I7T] | 2.53 |
| TLSEAYNQIWKRRDNDETNQQGA [I7N] | 2.82 |
| TLSEAYCQIWKRRDNDETNQQGA [I7C] | 2.41 |
| TLSEAYEQIWKRRDNDETNQQGA [I7E] | 3.69 |
| TLSEAYYQIWKRRDNDETNQQGA [I7Y] | 2.18 |
| TLSEAYVQIWKRRDNDETNQQGA [I7V] | 2.72 |
| TLSEAYAQIWKRRDNDETNQQGA [I7A] | 2.93 |
| TLSEAYSQIWKRRDNDETNQQGA [I7S] | 3.32 |
| TLSEAYFQIWKRRDNDETNQQGA [I7F] | 2.27 |
| TLSEAYHQIWKRRDNDETNQQGA [I7H] | 3.07 |
| TLSEAYQQIWKRRDNDETNQQGA [I7Q] | 3.2 |
| TLSEAYLQIWKRRDNDETNQQGA [I7L] | 2.44 |
| TLSEAYKQIWKRRDNDETNQQGA [I7K] | 3.71 |
| TLSEAYPQIWKRRDNDETNQQGA [I7P] | 3.23 |
| TLSEAYGQIWKRRDNDETNQQGA [I7G] | 2.56 |
| TLSEAYRQIWKRRDNDETNQQGA [I7R] | 2.68 |
| TLSEAYWQIWKRRDNDETNQQGA [I7W] | 3.49 |
| TLSEAEIQIWKRRDNDETNQQGA [Y6E] | 2.32 |
| TLSEAPIQIWKRRDNDETNQQGA [Y6P] | 2.61 |
| TLSEAAIQIWKRRDNDETNQQGA [Y6A] | 3.45 |
| TLSEARIQIWKRRDNDETNQQGA [Y6R] | 3.02 |
| TLSEAGIQIWKRRDNDETNQQGA [Y6G] | 3.19 |
| TLSEAIIQIWKRRDNDETNQQGA [Y6I] | 2.88 |
| TLSEAVIQIWKRRDNDETNQQGA [Y6V] | 3.28 |

| Variant | protein stability index |
| --- | --- |
| TLSEAQIQIWKRRDNDETNQQGA [Y6Q] | 3.57 |
| TLSEAHIQIWKRRDNDETNQQGA [Y6H] | 3.07 |
| TLSEATIQIWKRRDNDETNQQGA [Y6T] | 3.32 |
| TLSEANIQIWKRRDNDETNQQGA [Y6N] | 1.9 |
| TLSEADIQIWKRRDNDETNQQGA [Y6D] | 3.66 |
| TLSEAFIQIWKRRDNDETNQQGA [Y6F] | 2.9 |
| TLSEALIQIWKRRDNDETNQQGA [Y6L] | 2.2 |
| TLSEACIQIWKRRDNDETNQQGA [Y6C] | 2.98 |
| TLSEAMIQIWKRRDNDETNQQGA [Y6M] | 2.26 |
| TLSEASIQIWKRRDNDETNQQGA [Y6S] | 2.89 |
| TLSEAKIQIWKRRDNDETNQQGA [Y6K] | 3.02 |
| TLSEAYIQIRKRRDNDETNQQGA [W10R] | 3.49 |
| TLSEAYIQIMKRRDNDETNQQGA [W10M] | 2.5 |
| TLSEAYIQIHKRRDNDETNQQGA [W10H] | 2.9 |
| TLSEAYIQIFKRRDNDETNQQGA [W10F] | 2.78 |
| TLSEAYIQIAKRRDNDETNQQGA [W10A] | 3.39 |
| TLSEAYIQIVKRRDNDETNQQGA [W10V] | 3.58 |
| TLSEAYIQIGKRRDNDETNQQGA [W10G] | 3.27 |
| TLSEAYIQILKRRDNDETNQQGA [W10L] | 2.96 |
| TLSEAYIQIEKRRDNDETNQQGA [W10E] | 3.69 |
| TLSEAYIQIYKRRDNDETNQQGA [W10Y] | 2.53 |
| TLSEAYIQIDKRRDNDETNQQGA [W10D] | 3.97 |
| TLSEAYIQIQKRRDNDETNQQGA [W10Q] | 3.46 |
| TLSEAYIQISKRRDNDETNQQGA [W10S] | 3.19 |
| TLSEAYIQIKKRRDNDETNQQGA [W10K] | 3.23 |

| Variant | protein stability index |
| --- | --- |
| TLSEAYIQICKRRDNDETNQQGA [W10C] | 2.45 |
| TLSEAYIQITKRRDNDETNQQGA [W10T] | 2.92 |
| TLSEAYIQIIKRRDNDETNQQGA [W10I] | 2.72 |
| TLSEAYIQIPKRRDNDETNQQGA [W10P] | 3.41 |
| TLSEAYIQINKRRDNDETNQQGA [W10N] | 2.85 |
| TLSEAYILIWKRRDNDETNQQGA [Q8L] | 1.42 |
| TLSEAYITIWKRRDNDETNQQGA [Q8T] | 1.98 |
| TLSEAYIHIWKRRDNDETNQQGA [Q8H] | 2.24 |
| TLSEAYIEIWKRRDNDETNQQGA [Q8E] | 3 |
| TLSEAYIKIWKRRDNDETNQQGA [Q8K] | 3.05 |
| TLSEAYIVIWKRRDNDETNQQGA [Q8V] | 1.78 |
| TLSEAYIMIWKRRDNDETNQQGA [Q8M] | 1.59 |
| TLSEAYIAIWKRRDNDETNQQGA [Q8A] | 2.92 |
| TLSEAYIFIWKRRDNDETNQQGA [Q8F] | 2 |
| TLSEAYIYIWKRRDNDETNQQGA [Q8Y] | 2.07 |
| TLSEAYINIWKRRDNDETNQQGA [Q8N] | 2.63 |
| TLSEAYIDIWKRRDNDETNQQGA [Q8D] | 2.48 |
| TLSEAYIIIWKRRDNDETNQQGA [Q8I] | 1.5 |
| TLSEAYICIWKRRDNDETNQQGA [Q8C] | 1.95 |
| TLSEAYIGIWKRRDNDETNQQGA [Q8G] | 2.22 |
| TLSEAYIRIWKRRDNDETNQQGA [Q8R] | 3.93 |
| TLSEAYISIWKRRDNDETNQQGA [Q8S] | 2.48 |
| TLSEAYIPIWKRRDNDETNQQGA [Q8P] | 1.9 |
| TLSEAYIQIWGRRDNDETNQQGA [K11G] | 2.39 |
| TLSEAYIQIWHRRDNDETNQQGA [K11H] | 1.88 |

| Variant | protein stability index |
| --- | --- |
| TLSEAYIQIWIRRDNDETNQQGA [K11I] | 2.21 |
| TLSEAYIQIWLRRDNDETNQQGA [K11L] | 2.32 |
| TLSEAYIQIWVRRDNDETNQQGA [K11V] | 1.67 |
| TLSEAYIQIWARRDNDETNQQGA [K11A] | 1.74 |
| TLSEAYIQIWNRRDNDETNQQGA [K11N] | 2.41 |
| TLSEAYIQIWTRRDNDETNQQGA [K11T] | 3.14 |
| TLSEAYIQIWMRRDNDETNQQGA [K11M] | 2.63 |
| TLSEAYIQIWDRRDNDETNQQGA [K11D] | 1.58 |
| TLSEAYIQIWPRRDNDETNQQGA [K11P] | 1.72 |
| TLSEAYIQIWFRRDNDETNQQGA [K11F] | 2.04 |
| TLSEAYIQIWCRRDNDETNQQGA [K11C] | 3.3 |
| TLSEAYIQIWYRRDNDETNQQGA [K11Y] | 1.44 |
| TLSEAYIQIWERRDNDETNQQGA [K11E] | 1.92 |
| TLSEAYIQIWRRRDNDETNQQGA [K11R] | 1.86 |
| TLSEAYIQIWSRRDNDETNQQGA [K11S] | 3.78 |
| TLSEAYIQIWQRRDNDETNQQGA [K11Q] | 1.78 |
| TLSEAYIQQWKRRDNDETNQQGA [I9Q] | 3.23 |
| TLSEAYIQKWKRRDNDETNQQGA [I9K] | 3.13 |
| TLSEAYIQDWKRRDNDETNQQGA [I9D] | 2.84 |
| TLSEAYIQCWKRRDNDETNQQGA [I9C] | 2.12 |
| TLSEAYIQHWKRRDNDETNQQGA [I9H] | 2.68 |
| TLSEAYIQAWKRRDNDETNQQGA [I9A] | 2.66 |
